Measured values taken from a protein production outcome set (Wang et al. 2014).

Assay: label from the status in PepcDB records

Sequence | protein production
MVAYPGPMPRSPSPGQTPDAPTSGGGSTDSTRQRIVAAAKEEFARHGIAGARVDRIAKQARTSKERVYAYFRSKEALYAHVAERETTALIEATQLDPADLPGYAGILFDHFAARPDHYRLITWGRLELAESADNTSGPLQATIAGKLDKLRDAQRIGLLDPAWDPVDVLALINQIAMTWAGQPEIAAAAADQAVDPSVTARRAALVTAVEHMFPRPDRDQRPNRLT | not failed
MDLFLAMRVYVKVVETGSLTAAAQACSISTTMVGNHLRALEQRLGVSLLQRTTRRQRLTEFGTAYYQRCLEVLGLVAQSEQLAEQAQGEPTGTLRITAPLTFGSELLAPALVGFSQRFPDVKLDLVLTNQRLDMIDNGFDVAIRLGNLAQSSPLIARPLQDYTLTICAAPDYLARHSAPTRPEDLRAHNCLAFAYPAGDEWRTAGTQWRMTGPEGEVLVDVDGSMVANTSAGLYQAARAGMGVVMLPDALVQRDLQEGRLVALLPDYHLPRRPMNLLYVQDRYRLPKLRSFVEFATALWGR | failed
MTEPANNHPSPPPQNWLFKWWNSLNAITRLLVLVLGAPLMVLNARALSSIFGYFESLFVISLIASVIAFLLNYPVAWLEKQGAKRFVAASFVFLTALIIFTALGVTLIPLALSQAQQLVARLPDWLDSGQKQLVLLDQKAEILGWPVNFDGLIPQINSRLAAELQNLAGSTLNLALSLTVFTVVRLLDVLLTIILTFYLLLHTDDVWQSIIGWLPERFQKPFSDTLRRSFQNYFLGQLVSATCMALGLISGFLLLKVPFGLLFGLTVGVMALIPFGGSVGIVLVTFLVALRDIGMALQLLAVALVIQQIVENGIAPRVLGSVTGLNPFWVLISLLTGARIGGLLGVIVAVPSAVMIKEALGAIRSMKPLVPAPDHNQDPLYFKNQEEVQPLPPRP | failed
MQTPKSRPGSLELPQKKSPLPAPKVVRRLKPSGAESDPKTKTISKTQIPKVVADRRSARIPLNEKKRTGRIPELESTISQLQEELKKAKEELNRSEALKREAQEEAEDAKHQLMDINASEDSRIEELRKLSQERDKTWQSELEAMQRQHGMDSTALSSAINEVQKLKSKLFESESELEQSKYEVRSLEKLVRQLEEERVNSRDSSSSMEVEELKEAMNLSRQEITQLKSAVEAAETRYQEEYIQSTLQIRSAYEQTEAVKSRYSQREAELTEELNRTKDEIEGLRKELMEKVKEDESTGDLKKLESDLMEVRGSLMDKEMELQILRSAMEKKVETANTEAMEAELKRVKIQCEQWRKAAETAASILNNDEERTDSIETSKMLKKFGVLLKKNHK | failed
MDDGDTADDIMDATYRALCTHGYADLTMQDIADESDKSKAALHYHYDSKHDLLCAFLEYLYDGFVDRIEDPAGETPHERLLSLIDSVLDKPDDGSEEFGTAILEIRAHAPYEPGFRERLTKFDDYLVDELEVILEDGIADGTFKSDLDADETAQFIVTVLTGAATERVTTGRPVKCTRRMLTEYVETHLLDGQQEVTA | not failed
DRVLVPVANPNTEDNLLQLAIILTKSASGTLLPLHILLEENNPISPDAKAKQSQLLSTAEMIAHAAVVNVTPIGRIDESIDKGIARVAEEKQASAIICGWKGYSTYEENLFGGVIDKIVQRSFIPVLVSR | failed
MLLFWLEFIGIFIAIFVSAELLAKGADELEDFLGQGITGGIILGFLTALPETIFVIVASLEGSFDVALGSAIGGNVLLFTLGIGLVGVFYAFKWRTALQISSEYSVENVFLVLTTIGMLLVLIYGKLNIISGLLLILIYVIYVVYRVAKFRREGMEREKGNLMKPVGFIIAGGVLLVVFSHYFVEYINEIAIMFNVPAIWLSLVIAPIAGELEEKISAFRLVLMSKDGGSLSILSFVGSKIENATVLLGIIGIFTDYELQQALPEYASSLIANMIALYVLFDKRLKTFESVILIGVYVIIVILSFYL | failed
MTPQRATLTGMLAIILWSTSVGLIRSLTEALGPIGGAAMIYSTSTLCLLVFYGLPRIKTLPRIYLFAGGALFVCYEIFLSLSIGLADSRMQAMEIGMINYLWPSLTILFSLFINQQKSRFLLWPGLVISLGGIVWIMKGESDWTPELLWNNILANPLAYSLAFSAALTWALYCNITKRYGQGKSGVSLFFFIASLVLWIQYSFSAEGPISLTLPSSLELLFMGASAALAYSAWNAGIQYGNLTLLATASYFTPVLSTLLAAIWLNITPAISFWQGVAMVTAGSLLCWYATRSSTR | failed
MFTQRKKWLSGVAAGLLMAASVSASAEEKILHIYNWSDYIAPDTLANFQKETGIKVVYDVFDSNEVLEGKLMAGSTGFDLVVPSASFLERQLSAGVFKPLDKSKLPNEKNLDPELLALVSKHDPDNKYAIPYLWATTGIGYNVEKVKAVLGEDAPVNSWDLVLKPENLEKLKSCGVSFLDAPSEIFATVLNYLGKDPNSTLTADYTGSATDLLLKLRPNIRYFHSSQYINDLANGDICVAVGWAGDIMQASNRAKEAKNGVNVAYSIPKEGALAFFDVFAMPTDAKNQDEAYQFLNYLMRPDVIANISNHVFYANANQAATPLVNAEVRDNPGIYPPADVRAKMFTLKVQDPKIDRVITRAWTKVKSGK | failed
MANGTTPSVGIALGSGAAKGWAHIGVLNGLAAMGIKPDKVAGCSVGALVGAAYAHDHLPELEEWVRSFSSWDVLGLMDIRWRKGGLIGGDKVFDVLQARIGDVNIENLNRPFAAVATDLYSGQEIWFTEGDLRQAVRASCSMPGILAPVRQGDRWLVDGAVVNPVPVSVSRAMGVDVVIAVDLYGYHSGRIQVLPVSMTSQKNVEAEMDMSARQETGFMDLFARGRDYVSNLTDKFSLGTKSNPGMIAVMSQSMGILEQRHKRARLMGDPPDICIVPEVGNIGTMEFHRADEAIAAGEAAVEKVAHLIEAALWKG | not failed
MTQKEWPLWEVFVRSKQGLEHKHCGSLHATDAQQALHMARDVYTRRQEGVSIWVVPSTAITASAPEEKPELFDPMADKIYRHPTFYQLPDEVNHM | not failed
MDRECERDPYYDDLKVAKRAIEQMEMVAMMEGIPKFCPCGGSIVDTRKDEKRYYQCEKFKDDRTDLMHIRKLWDKAMEEEVSSLRESVDYNRKKVLSHEYLIEEMQKELKAHRAEIVNVSKVVFRNPMAPKK | failed
MDGVGAHAHTGELRSAQALRSASLWLWPLLCWALLAGWPLGAHPLKHTAYHTVTRWDMDDGLPHNLVHAVAQGSDGVIWLGTWEGVARFNGRDFTVFDRQNTPGVELGGVFVVVRDGDGMLFGTAFDGVYRHQDGRWQQLGDASARHLAVSALLRRADGALWVGTPQTLYRIELDGRVVDVGRQAGLPRARITALSTDARGDLWIGTDVGLYQLPLGASAATAWGQAHGMADTPVRRLASDRQGGLLVAGDDGVWWWSRGGGLQRFRQGQRVDSLVMDRSGHLWMSLSAGTLVVHSGPDDPDEQIAISGVASPALLEDAEGLIWVGSTHGLFRVAEGAAHGVTIDDGLASDYVRSVLQTADGTVWVGSAVGLDRWRDGQIARVPFSRGSAGRVLEQSVLALADAGDGGVWAGTYSQGVLRLDAQGAVVQRIGAAEGLSSLSVRAVLPDGDALWIGTTAGLVRWHDGRARRYTAADGVPDGSVQVLYRDAQGTIWSGTDRGMTALSPDGGTRAWLGEQDFPGQNAFDFLRDPSGDLWIASDRGLLRLRGERFQVYDHRVGLPRDKVFRVIDDGRGYLWLSSNHGVFRIARRDFDQIDAGTREQLSVEVVDRSDGMPGNQGNGSSAPAGWLTQTGQLLFPTAAGLGVIDPARVGTLQGHRVPIVIERLVVDGMVQPLDGPHRLSADTRRIAIGYAGLNFRGPDKVRYRYRLDGFDPDWVDADSATEAVYTNLPPGRFRFRVQAMSLPVDWRQAALLGETSVVLELAPPWWRRGEVIGLGVLCLASVIYGFYLWRTASYRRRQRELNVVIDKRTRELSDKNLALQQASQEREALMRQLEYRASHDVLTALPNRREAERVLQQWLDEAQAGGAPLALALADIDHFKRINDAHGHEVGDAVLRAVGEVLADQEHAHCFAARHGGEEFLLAVTGLEAAHARALFEQQRQRLGTIAIAADEATVQCTASMGMAMSNEAHSRRELLALADRRLYHAKRQGRDRLIDQ | failed
MPVTEISEKLSVSPQPSIEDIQSLRDQGFKTLINNRPDNEDASQPNTRAERQQAKQCDLSYAFIPVTADTITEADVRAFQRAVDESDGPVLAHCQTGKRALNLYLIGEVLDGSMSVDKVVEFGRSRGFDTSAAAAWLKQHAARRPQVKGFFDKRTWSVQYVISDPLTRKCAIVDPVLDFDEKSGATATINADAILDYIRDNGLTVEWILDTHPHADHFSAAHYLQEKTGARTAIGERVVDVQKLWKGIYNWPELATDGSQWDRLFAHGETFEVGSIDAKVLFSPGHTLASITYVIGDAAFVHDTLFMPDSGTARADFPGGDARVLWKSIQEILALPAETRIFTGHDYQPEGRAPRWESTVAEQKKSNPHLAGVNEQEFVALRTTRDKTLPMPKLILHALQVNIRGGRLPEPEANGKRYLKFPLDALQGAAWE | failed
MALELSRLPELLSRIDGYKGQPVTRLAVMLNLLVFIRSSELRYARWSEIDIDNSMWTIPAEREPLPGVKFSHRGSKMRTPHLVPLSKQVVAILAELQTWAGENGLIFTGAHDPRKPISENTVNKALRVMGYDTTQEVCGHGFRAMACSALIESGLWSRDAVERQMSHQERNGVRAAYIHKAEHLEERRLMLQWWADFLDANREKGISPFEYAKINNPLKLEHHHHHH | not failed
MSKMRFFALQELSNRKPLEITTPSNKLSDYYASHVFDRKKMQEYLPKEAYKAVVDATEKGTPISREMADLIANGMKSWAKSLNVTHYTHWFQPLTDGTAEKHDGFIEFGEDGEVIERFSGKLLIQQEPDASSFPNGGIRNTFEARGYTAWDGSSPAFVVDTTLCIPTIFISYTGEALDYKTPLLKALAAVDKAATEVCQLFDKNITRVFTNLGWEQEYFLVDTSLYNARPDLRLTGRTLMGHSSAKDQQLEDHYFGSIPPRVTAFMKELEIECHKLGIPVKTRHNEVAPNQFELAPIFENCNLANDHNQLVMDLMKRIARKHHFAVLFHEKPYNGVNGSGKHNNWSLCTDTGINLFAPGKNPKGNMLFLTFLVNVLMMVHKNQDLLRASIMSAGNSHRLGANEAPPAILSIFLGSQLSATLDEIVRQVTNSKMTPEEKTTLKLGIGRIPEILLDTTDRNRTSPFAFTGNRFEFRAAGSSANCAAAMIAINAAMANQLNEFKASVDKLMEEGIGKDEAIFRILKENIIASELIRFEGDGYSEEWKQEAARRGLTNICHVPEALMHYMDNQSRAVLIGERIFNETELACRLEVELEKYTMKVQIESRVLGDLAINHIVPIAVSYQNRLLENLCRMKEIFSEEEYEVMSADRKELIKEISHRVSAIKVLVRDMTEARKVANHKENFKEKAFAYEETVRPYLESIRDHIDHLEMEIDDEIWPLPKYRELLFTK | not failed
MEQKQQSERLGTEAIPKLLRSLSIPAMIGMFVMALYNVVDTIFISYAVGIEGVAGVTIAFPIMMIMMSMAGALGIGGASVISRRLGERRGEEANQVFGNILTVILVLSVIGFISAFTLLGPALQLFGATSVTQGYATDYLFPILLGSIFFFFAFAANNIIRSEGNATFAMVTMIVPAVLNILLDVLFIFGLNMGVLGASIATVIAQASVTGLVLRYFLTGKSTLSLHWSDLRMKGSVIKEVCLVGLPAFVQQSSASLMMIAINSMLLRFGSDFYVGVFGLVQRIMMFVMMPMMGIMQAMQPIVGYNYGAKQYSRLRETVMLGFKVATIFSIGIFALLMLFPEALLRVFTADREVIQAGVSAMHILFCVTFLIGAQIVAGGLYQSLGKPKQALILSLSRQIIFLIPLVLILPHIFGLSGVWWAFPIADVLSFILTVVLLYRDRNVFFLKTKEERELDLVKTASST | failed
MKITVIVPTYRRTKDLTRCLESLEKQSRPADEVLVVVRDTDVETWQFLETIAPHSLPLHTTTVRVPGVVAAMNAGLDIAQGDIIAFTDDDAAPHSNWLAQIETHFLAHEQIAGVGGRDWVYHGDRLEDGTCPVVGQVHWFGRVIGNHHIGIGKPREVDVLKGVNMSFRRSAVHGLRFDQRMLGTGAQVHFEVAFCLALKRAGWKLIYDPQIGVNHYPAQRFDEDQRQSFNHLAVTNAVHNETLALLEHLSPTQQLTFLLWATLVGTRDSMGLIQFLRFLPSDRALAGQKLLAAWYGRWRGWRTWQSSIRFAQIKN | failed
